In paper PMC11270187 (2024):
Positions count from the first letter of the chain named. Numbers in names are those of the source. Where two headings read alike, the source gives them in different places.

B1: parental 44H10 IgG (antibody, V domains shown)
VH: QVQLKESGPGLVAPSQSLSITCTVSGFSLTSYGVHWVRQPPGKGLEWLGVIWAGGSINYNSALMSRLSISKDNFKSQVFLKMSSLQTDDTAMYYCARAYGDYVHYAMDYWGQGTSVTASS
VL: DIQMTQSPSSLSASLGQRVSLTCRASQEISGYLTWLQQKPDGTIKRLVYAASTLDSGVPKRFSGSRSGSDYSLTISSLESEDFADYYCLQYTNYPLTFGAGTKLELK
B2: humanized 44H10 version 17 IgG (antibody, V domains shown)
VH: QVTLKESGPVLVKPTETLTLTCTVSGFSLTSYGVHWIRQPPGKALEWLAVIWAGGSISYSTSLMSRLTISKDTSKSQVVLTMTNMDPVDTATYYCARAYGDYVHYAMDYWGQGTLVTVSS
VL: DIQMTQSPSSLSASVGDRVTITCRASQEISGYLTWLQQKPGKAPKLLIYAASTLDSGVPSRFSGSGSGTDFTLTISSLQPEDFATYYCLQYTNYPLTFGQGTKLEIK
B3: humanized 44H10 version 21 IgG (V17 with light chain S60K and G66R back-mutations) (antibody, V domains shown)
VH: B2 VH
VL: B2 VL with S60K, G66R
B4: humanized 44H10 version 22 IgG (antibody, V domains shown)
VH: QVQLQESGPGLVKPSETLSLTCTVSGFSLTSYGVHWIRQPPGKGLEWIGVIWAGGSINYNSALMSRVTISKDTSKNQVSLKLSSVTAADTAVYYCARAYGDYVHYAMDYWGQGTLVTVSS
VL: B2 VL with S60K, G66R

How the values were obtained:
[1] = target: T1, HLA-DR on BJAB cells (human (endogenous in BJAB), UniProt P01903 26-254; P01911 30-266); test: FACS
[2] = target: T1, HLA-DR on BJAB cells; test: FACS; remark: listed apart in the source
[3] = target: T2, recombinant HLA-DR (uncleaved) (human, UniProt P01903 28-206; P01911 30-219); test: BLI; apparent
[4] = target: T1, HLA-DR on BJAB cells; test: FACS; remark: listed apart in the source
[5] = target: T2, recombinant HLA-DR (uncleaved); test: BLI; apparent; remark: listed apart in the source
[6] = target: T2, recombinant HLA-DR (uncleaved); test: BLI; apparent; remark: listed apart in the source

Binder	EC50 [1]	EC50 [2]	further results
B1	0.8 nM	1 nM	Kd [3]: 2.2 nM
B2	43 nM		
B3			EC50 [4]: 14 nM; Kd [5]: 95 nM
B4		1.7 nM	Kd [6]: 29 nM
